# Measurements: PMC3074150
# Experiments:
# [1] = target: δ2K242A (Streptococcus pyogenes plasmid pSM19035)
# [2] = target: δ2K248S (Streptococcus pyogenes plasmid pSM19035)
# [3] = target: δ2K259A/K260A (Streptococcus pyogenes plasmid pSM19035)
substance,measurement,setting,value
δ2K242A (enzyme),stoichiometry N,[1],2
δ2K248S (enzyme),stoichiometry N,[2],2
δ2K259A/K260A (enzyme),stoichiometry N,[3],2
